Results as given in PMC4766014, “Structures of Two Melanoma-Associated Antigens Suggest Allosteric Regulation of Effector Binding” (PLoS ONE, 2016).

Biological target: the molecule itself
Experiment: AUC; sedimentation velocity, 4°C, 45,000 rpm, 10 mM HEPES pH 7.5, 150 mM NaCl, 0.5 mM TCEP; MAGE-A3 at 0.75 mg/ml, MAGE-A4 at 0.5 mg/ml; c(s) analysis with SEDFIT

Row | Protein | stoichiometry N
1 | MAGE-A3 MHD domain, residues 104-314 (domain or fragment, human, UniProt P43357 104-314, looked up, MAGE-A3, human, MAGE homology domain (MHD), residues 104-314; Dimer in solution by AUC and SAXS (dimer B interface); The final 4 residues are disordered in the crystal structure; also called MAGE-A3^104-314; melanoma associated antigen A3) EFQAALSRKVAELVHFLLLKYRAREPVTKAEMLGSVVGNWQYFFPVIFSKASSSLQLVFGIELMEVDPIGHLYIFATCLGLSYDGLLGDNQIMPKAGLLIIVLAIIAREGDCAPEEKIWEELSVLEVFEGREDSILGDPKKLLTQHFVQENYLEYRQVPGSDPACYEFLWGPRALVETSYVKVLHHMVKISGGPHISYPPLHEWVLREGEE | 2
2 | MAGE-A3 C-terminally truncated construct, residues 104-294 (domain or fragment, human, UniProt P43357 104-294, looked up, MAGE-A3, human, residues 104-294 (lacks the final 20 residues of the crystallized construct); also called MAGE-A3^104-294) EFQAALSRKVAELVHFLLLKYRAREPVTKAEMLGSVVGNWQYFFPVIFSKASSSLQLVFGIELMEVDPIGHLYIFATCLGLSYDGLLGDNQIMPKAGLLIIVLAIIAREGDCAPEEKIWEELSVLEVFEGREDSILGDPKKLLTQHFVQENYLEYRQVPGSDPACYEFLWGPRALVETSYVKVLHHMVKIS | 2
